The values that follow come from patent US20110142849A1 (IRM, published 2011).

Experiment [1] concerns the target T1, mouse Pcsk9 with C-terminal his6 tag (mouse, UniProt Q80W65 35-694, limits assumed).
T1 construct: also called murine PCSK9
The experiment is described as follows: not told in the legend.

The target of experiment [2] is T2, recombinant human Pcsk9 (aa 31-692) with C-terminal his6 tag (human, UniProt Q8NBP7 31-692).
T2 construct: In the TR-FRET assay it carried a fluorophore (hPcsk9-AF); also called hPCSK9; hPcsk9
The experiment can be described thus: Solution Equilibrium Titration (SET), MSD read-out. The method, then:
The binding kinetics of IgGs and Fab fragments were analyzed using a Solution Equilibrium Titration (“SET”) assay. Briefly, serial dilutions of hPCSK9 were added to 60 pM IgG or Fab and incubated overnight. A 96-well Standard Bind microtiter plate (Meso Scale Discovery) was coated with 1 μg/ml hPCSK9 and incubated overnight, washed with PBS/0.05% (w/v) Tween 20, blocked with PBS/5% (w/v) BSA, and washed again. The antibody-antigen preparation was added to the PCSK9-coated Standard Bind plate and incubated for 30 min at room temperature. After three additional washing steps, Sulfo-Tag-labeled goat-anti-human-detection antibody (R32AJ-5, Meso Scale Discovery) was added and incubated one hour at room temperature. After washing the plate three times, Read Buffer (Meso Scale Discovery) was added and electrochemiluminescence (ECL) signals were measured by a Sector Imager 6000 (Meso Scale Discovery). ECL data were processed with the excel add-in XLfit 4.3.2 (ID Business Solutions) using the fitting model applicable for antibodies described in Piehler, et al., (1997) J Immunol Methods 201:189-206.

Experiment [3] has as its target T3, hTrkB (human, UniProt Q16620).
T3 construct: panel antigen of the specificity ELISA
The experiment can be described thus: specificity ELISA on coated antigen (88 ng per well), antibody at 2 µg/mL, ABS650. The protocol: (§1) For specificity ELISAs on purified human and mouse IgGs, a 384-well plate was coated with a panel of purified human or mouse antigens at 88 ng per well and incubated overnight at 4° C. The plate was blocked and washed as described above, then 22 μL of purified mouse or human anti-PCSK9 antibody diluted to 2 μg/mL in PBS was added to each well. The plate was incubated for 1 hr at 37° C. then washed with PBST. Anti-mouse Fc antibody (Jackson ImmunoResearch Labs #115-035-071) or anti-human kappa antibody (Sigma #A7164) conjugated to HRP was diluted 1:5000 in PBS (25 μL) and added to each well. The plate was incubated for 1 hr at room temperature, then washed and developed as described above.
(§2) In order to test whether the antigen specificity of the parental mouse antibody LFU720 was retained in the final Humaneered™ IgGs, LGT209, LGT210 and LGT211, binding of the antibodies to a panel of human and mouse antigens (as well as human PCSK9) was tested in an ELISA assay.

Experiment [4] deals with T4, hNotch-3 NRR (human, UniProt Q9UM47).
T4 construct: panel antigen of the specificity ELISA
T4 sequence (antigen, looked up): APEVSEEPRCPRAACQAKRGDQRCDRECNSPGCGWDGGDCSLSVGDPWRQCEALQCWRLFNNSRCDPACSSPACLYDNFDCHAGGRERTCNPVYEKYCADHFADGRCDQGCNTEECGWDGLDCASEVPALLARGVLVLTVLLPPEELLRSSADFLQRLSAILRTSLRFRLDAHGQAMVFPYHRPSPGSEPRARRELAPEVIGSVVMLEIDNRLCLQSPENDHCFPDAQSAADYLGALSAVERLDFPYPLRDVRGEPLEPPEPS
Described as above. The protocol:
as §1, §2

Experiment [5] has as its target T5, hIL-12RB1 (human, UniProt P42701).
T5 construct: panel antigen of the specificity ELISA
The description is as above. The method, then: as §1, §2

The target of experiment [6] is T6, hFGFR4 (human, UniProt P22455).
T6 construct: panel antigen of the specificity ELISA
T6 sequence (antigen, looked up): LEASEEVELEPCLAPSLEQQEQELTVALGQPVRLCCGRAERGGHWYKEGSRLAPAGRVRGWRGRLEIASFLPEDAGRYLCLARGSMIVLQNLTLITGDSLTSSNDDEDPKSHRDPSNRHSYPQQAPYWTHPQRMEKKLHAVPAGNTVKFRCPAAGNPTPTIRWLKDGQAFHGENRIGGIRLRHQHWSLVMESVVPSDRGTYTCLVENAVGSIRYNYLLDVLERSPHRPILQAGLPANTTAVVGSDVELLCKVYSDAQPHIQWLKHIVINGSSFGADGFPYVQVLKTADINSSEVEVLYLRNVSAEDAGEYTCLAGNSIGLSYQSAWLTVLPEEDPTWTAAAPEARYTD
The experiment is described as above. The method, then: as §1, §2

The target of experiment [7] is T7, hRspo-2 (human, UniProt Q6UXX9).
T7 construct: panel antigen of the specificity ELISA
Described as above. The protocol:
as §1, §2

Experiment [8] concerns the target T8, hβ-Klotho (human, UniProt Q86Z14).
T8 construct: panel antigen of the specificity ELISA
T8 sequence (antigen, looked up): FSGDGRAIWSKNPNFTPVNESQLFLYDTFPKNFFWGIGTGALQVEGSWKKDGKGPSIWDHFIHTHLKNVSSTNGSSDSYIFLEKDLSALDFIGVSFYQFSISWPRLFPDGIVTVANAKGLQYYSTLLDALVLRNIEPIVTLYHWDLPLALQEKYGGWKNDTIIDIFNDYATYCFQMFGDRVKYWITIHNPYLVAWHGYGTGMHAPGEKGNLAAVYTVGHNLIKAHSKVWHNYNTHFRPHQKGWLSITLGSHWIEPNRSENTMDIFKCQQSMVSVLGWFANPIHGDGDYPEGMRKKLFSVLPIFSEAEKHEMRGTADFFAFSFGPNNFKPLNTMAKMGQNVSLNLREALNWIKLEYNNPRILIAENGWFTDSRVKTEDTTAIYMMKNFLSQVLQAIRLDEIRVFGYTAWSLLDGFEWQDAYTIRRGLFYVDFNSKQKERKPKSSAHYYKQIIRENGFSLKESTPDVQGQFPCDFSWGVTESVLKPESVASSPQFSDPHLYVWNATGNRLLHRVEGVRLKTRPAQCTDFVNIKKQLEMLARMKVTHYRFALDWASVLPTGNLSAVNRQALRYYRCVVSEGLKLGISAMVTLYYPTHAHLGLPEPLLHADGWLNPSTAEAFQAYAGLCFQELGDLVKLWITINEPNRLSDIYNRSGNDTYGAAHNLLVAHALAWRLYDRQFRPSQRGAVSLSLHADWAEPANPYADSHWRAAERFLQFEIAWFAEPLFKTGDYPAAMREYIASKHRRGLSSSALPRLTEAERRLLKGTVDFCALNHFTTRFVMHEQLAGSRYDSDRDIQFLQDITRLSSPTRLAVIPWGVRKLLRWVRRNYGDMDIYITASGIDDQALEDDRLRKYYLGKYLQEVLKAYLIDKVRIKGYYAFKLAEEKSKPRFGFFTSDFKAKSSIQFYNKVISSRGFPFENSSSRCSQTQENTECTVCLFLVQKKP
Described as above. The method, then: as §1, §2

Experiment [9] deals with T9, hGITR (human, UniProt Q9Y5U5).
T9 construct: panel antigen of the specificity ELISA
T9 sequence (antigen, looked up): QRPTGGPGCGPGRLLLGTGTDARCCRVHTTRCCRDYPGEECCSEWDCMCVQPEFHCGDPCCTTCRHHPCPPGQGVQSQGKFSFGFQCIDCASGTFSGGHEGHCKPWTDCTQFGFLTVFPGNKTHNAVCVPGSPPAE
Described as above. The protocol: as §1, §2

Experiment [10] deals with T10, hAgr2 (human, UniProt O95994).
T10 construct: panel antigen of the specificity ELISA
T10 sequence (antigen, looked up): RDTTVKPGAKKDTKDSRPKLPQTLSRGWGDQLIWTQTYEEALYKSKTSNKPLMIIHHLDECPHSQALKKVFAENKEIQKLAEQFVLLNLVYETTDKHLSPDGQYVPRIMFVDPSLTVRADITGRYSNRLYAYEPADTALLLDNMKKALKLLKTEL
The experiment is described as above. The protocol: as §1, §2

Experiment [11] has as its target T11, hDDR1 (human, UniProt Q08345).
T11 construct: panel antigen of the specificity ELISA
Described as above. The protocol:
as §1, §2

Experiment [12] addresses T2, recombinant human Pcsk9 (aa 31-692) …. The experiment can be described thus: ForteBio Octet, purified Fab. A general note: BLI is a label-free optical method that tracks binding on a fibre tip over time.

T2 sequence (Q8NBP7 other isoform, or with tags, fused parts or gaps limits assumed, form in doubt): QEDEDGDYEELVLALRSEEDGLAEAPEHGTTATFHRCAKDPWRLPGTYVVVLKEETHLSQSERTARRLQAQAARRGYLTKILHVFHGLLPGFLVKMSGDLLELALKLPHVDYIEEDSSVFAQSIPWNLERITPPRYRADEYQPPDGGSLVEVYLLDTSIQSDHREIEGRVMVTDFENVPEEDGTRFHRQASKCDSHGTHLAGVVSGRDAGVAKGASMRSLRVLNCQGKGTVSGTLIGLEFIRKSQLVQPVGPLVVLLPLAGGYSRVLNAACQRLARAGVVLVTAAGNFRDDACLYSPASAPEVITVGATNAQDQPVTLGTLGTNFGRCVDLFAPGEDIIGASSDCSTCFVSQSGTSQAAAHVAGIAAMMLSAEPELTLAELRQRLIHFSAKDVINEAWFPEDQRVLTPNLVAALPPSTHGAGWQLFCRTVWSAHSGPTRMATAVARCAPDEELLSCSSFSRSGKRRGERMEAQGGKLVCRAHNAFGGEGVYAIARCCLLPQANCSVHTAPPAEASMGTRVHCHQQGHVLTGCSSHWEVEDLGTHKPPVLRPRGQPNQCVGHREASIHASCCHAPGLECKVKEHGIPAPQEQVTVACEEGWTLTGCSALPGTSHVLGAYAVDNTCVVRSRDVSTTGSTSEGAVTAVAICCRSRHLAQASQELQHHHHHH
T1 sequence (Q80W65 other isoform, or with tags, fused parts or gaps limits assumed): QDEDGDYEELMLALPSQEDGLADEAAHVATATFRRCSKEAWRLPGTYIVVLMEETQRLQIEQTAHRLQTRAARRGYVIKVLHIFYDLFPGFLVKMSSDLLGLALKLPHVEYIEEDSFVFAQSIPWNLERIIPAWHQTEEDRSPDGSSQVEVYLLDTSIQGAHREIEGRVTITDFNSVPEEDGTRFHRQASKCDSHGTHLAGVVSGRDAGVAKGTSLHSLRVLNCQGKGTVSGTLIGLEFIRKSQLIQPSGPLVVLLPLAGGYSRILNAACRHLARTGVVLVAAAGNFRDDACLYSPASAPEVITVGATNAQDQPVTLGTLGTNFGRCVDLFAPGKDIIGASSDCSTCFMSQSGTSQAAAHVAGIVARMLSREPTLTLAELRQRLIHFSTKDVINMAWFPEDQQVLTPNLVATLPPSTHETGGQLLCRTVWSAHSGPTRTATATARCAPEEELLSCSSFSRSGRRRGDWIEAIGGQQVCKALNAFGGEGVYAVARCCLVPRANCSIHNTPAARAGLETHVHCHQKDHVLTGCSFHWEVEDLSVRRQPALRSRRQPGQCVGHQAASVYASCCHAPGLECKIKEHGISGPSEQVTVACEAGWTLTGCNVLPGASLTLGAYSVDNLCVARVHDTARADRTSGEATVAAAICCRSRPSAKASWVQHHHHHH
T11 sequence (Q08345 21-416 limits assumed): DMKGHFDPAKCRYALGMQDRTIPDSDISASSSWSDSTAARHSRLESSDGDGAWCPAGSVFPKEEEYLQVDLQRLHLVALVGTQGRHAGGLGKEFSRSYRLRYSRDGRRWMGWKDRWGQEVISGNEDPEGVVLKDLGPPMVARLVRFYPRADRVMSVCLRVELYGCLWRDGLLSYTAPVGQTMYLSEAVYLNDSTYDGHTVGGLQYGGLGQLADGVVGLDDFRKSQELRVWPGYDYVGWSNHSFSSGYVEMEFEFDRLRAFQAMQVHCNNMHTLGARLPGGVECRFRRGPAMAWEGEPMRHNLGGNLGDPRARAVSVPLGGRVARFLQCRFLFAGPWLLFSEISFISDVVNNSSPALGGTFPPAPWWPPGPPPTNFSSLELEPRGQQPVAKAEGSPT
T3 sequence (Q16620 32-430 limits assumed): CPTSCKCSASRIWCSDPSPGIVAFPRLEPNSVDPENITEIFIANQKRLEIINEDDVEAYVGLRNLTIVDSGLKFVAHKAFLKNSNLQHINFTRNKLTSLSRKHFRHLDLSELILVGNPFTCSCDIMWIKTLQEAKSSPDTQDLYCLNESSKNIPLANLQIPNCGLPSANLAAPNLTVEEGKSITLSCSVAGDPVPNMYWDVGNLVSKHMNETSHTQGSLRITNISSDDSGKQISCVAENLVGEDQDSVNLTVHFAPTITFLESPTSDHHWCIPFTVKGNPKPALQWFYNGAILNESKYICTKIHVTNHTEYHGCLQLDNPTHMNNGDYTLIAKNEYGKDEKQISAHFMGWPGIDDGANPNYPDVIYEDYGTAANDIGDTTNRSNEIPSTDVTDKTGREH
T7 sequence (Q6UXX9 22-243 limits assumed): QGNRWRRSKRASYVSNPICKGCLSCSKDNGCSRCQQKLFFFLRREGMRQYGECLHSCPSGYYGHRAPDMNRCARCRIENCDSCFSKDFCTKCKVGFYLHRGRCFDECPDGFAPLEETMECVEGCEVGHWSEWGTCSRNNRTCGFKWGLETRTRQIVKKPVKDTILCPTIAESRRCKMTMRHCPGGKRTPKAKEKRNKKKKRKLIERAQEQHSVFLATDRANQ

B1: NVP-LGT209 (antibody, human IgG1)
heavy: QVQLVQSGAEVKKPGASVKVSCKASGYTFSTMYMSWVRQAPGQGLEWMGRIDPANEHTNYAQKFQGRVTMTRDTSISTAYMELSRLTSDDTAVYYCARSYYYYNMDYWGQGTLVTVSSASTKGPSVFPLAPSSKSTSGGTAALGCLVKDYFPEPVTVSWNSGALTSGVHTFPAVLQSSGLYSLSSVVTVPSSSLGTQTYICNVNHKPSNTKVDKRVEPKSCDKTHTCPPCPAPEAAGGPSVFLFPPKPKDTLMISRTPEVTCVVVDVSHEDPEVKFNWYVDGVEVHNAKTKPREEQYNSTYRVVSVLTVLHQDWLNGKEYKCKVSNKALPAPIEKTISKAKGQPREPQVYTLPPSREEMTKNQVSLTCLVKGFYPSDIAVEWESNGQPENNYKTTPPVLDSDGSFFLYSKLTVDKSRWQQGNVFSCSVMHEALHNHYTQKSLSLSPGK
light: QIVLTQSPATLSVSPGERATLSCRASQSVSYMHWYQQKPGQAPRLLIYGVFRRATGIPDRFSGSGSGTDFTLTIGRLEPEDFAVYYCLQWSSDPPTFGQGTKLEIKRTVAAPSVFIFPPSDEQLKSGTASVVCLLNNFYPREAKVQWKVDNALQSGNSQESVTEQDSKDSTYSLSSTLTLSKADYEKHKVYACEVTHQGLSSPVTKSFNRGEC
notes: Silent human IgG1 kappa made in 293 Freestyle cells; also called pJG04 (Vh) + pJG10 (Vk)
Usually Kd stands for the free concentration of one partner at which half of the binding sites on the other are occupied at equilibrium, for simple one-to-one binding. For the molecule B1, the binding result is reported as “no binding” in experiment [1]; “no binding (tested: 2 µg/mL)” in experiment [3]; “no binding (tested: 2 µg/mL)” in [4]; “no binding (tested: 2 µg/mL)” in experiment [5]; “no binding (tested: 2 µg/mL)” in experiment [6]; “no binding (tested: 2 µg/mL)” in experiment [7]. The binding result in experiment [8], in [9], in [10] and in [11] was “no binding (tested: 2 µg/mL)” in each case. Also, the Kd in experiment [2] stood at 0.19 nM.

B2: NVP-LGT210 (antibody, human IgG1)
heavy: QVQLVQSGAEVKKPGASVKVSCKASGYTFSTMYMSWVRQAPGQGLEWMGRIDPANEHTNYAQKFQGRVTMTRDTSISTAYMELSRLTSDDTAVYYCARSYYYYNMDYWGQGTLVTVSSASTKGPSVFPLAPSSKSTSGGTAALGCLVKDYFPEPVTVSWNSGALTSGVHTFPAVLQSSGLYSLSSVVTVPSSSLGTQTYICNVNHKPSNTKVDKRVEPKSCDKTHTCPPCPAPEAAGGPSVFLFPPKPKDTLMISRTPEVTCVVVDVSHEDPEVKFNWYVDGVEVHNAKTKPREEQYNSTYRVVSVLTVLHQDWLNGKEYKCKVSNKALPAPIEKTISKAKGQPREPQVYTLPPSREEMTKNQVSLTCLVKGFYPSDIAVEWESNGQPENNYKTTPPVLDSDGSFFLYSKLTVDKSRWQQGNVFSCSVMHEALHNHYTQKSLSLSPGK
light: EIVMTQSPATLSVSPGERATLSCRASQSVSYMHWYQQKPGQAPRLLIYGVFRRATGIPDRFSGSGSGTDFTLTIGRLEPEDFAVYYCLQWSSDPPTFGQGTKLEIKRTVAAPSVFIFPPSDEQLKSGTASVVCLLNNFYPREAKVQWKVDNALQSGNSQESVTEQDSKDSTYSLSSTLTLSKADYEKHKVYACEVTHQGLSSPVTKSFNRGEC
notes: Silent human IgG1 kappa; also called pJG04 (Vh) + pJG01 (Vk)
As to B2, the binding result is given as “no binding” in experiment [1]; “no binding (tested: 2 µg/mL)” in experiment [3]; “no binding (tested: 2 µg/mL)” in experiment [4]; “no binding (tested: 2 µg/mL)” in experiment [5]; “no binding (tested: 2 µg/mL)” in experiment [6]; “no binding (tested: 2 µg/mL)” in [7]. Further, the binding result in experiment [8], in experiment [9], in experiment [10] and in experiment [11] was “no binding (tested: 2 µg/mL)” in each case. For the same molecule, the Kd in [2] stood at 0.15 nM.

B3: CDRH1-variant Fab SR079 (Fab, V domains shown)
VH: QVQLVQSGAEVKKPGASVKVSCKASGYTFSTMYMSWVRQAPGQGLEWMGRIDPANGHTNYAQKFQGRVTMTRDTSISTAYMELSRLTSDDTAVYYCARSYYYYAMDYWGQGTLVTVSS
VL: EIVMTQSPATLSVSPGERATLSCRASQSVSSSHVAWYQQKPGQAPRLLIYGVFRRATGIPDRFSGSGSGTDFTLTIGRLEPEDFAVYYCLQWSSDPPTFGQGTKLEIK
notes: also called SR079 (humaneered)
With B3, the Kd in experiment [12] is 54.2 nM.
